Data published in the DeepSol protein solubility set.

assay: soluble on expression in E. coli; label from the status in PepcDB or PDB records

| Sequence | soluble on expression in E. coli |
| --- | --- |
| MGSDKIHHHHHHMPGRAGGCTRNTGAPVNRQDRAHAFLQRALEAQAALPVDHGLMRDLFAGTGDDSRLSLSEVGELVSRDPSLAVRILSLANSAYYGLQAEVTTVGRAVTVLGMREVRNLVLALGFSSVARMHPLPDRFCTAGYWLHQLRVAAFCRIIAAGTEDLDPEMLYTAGLLHDIGKLFIAALAPDDWLGIRRLARQESLPDCKAEERWWGLDHALAGARVLAYWQLPAALTEPISWHHGPHFADAAHARGAGAVQLADALLLAFERGTPPPAAALQLLKEYTADAGRLQMALEAQFAGERIGQLAALLG | not soluble |
| MGSDKIHHHHHHMPHSLHPLFQAIATAPTEQTLRLTVMDNISEYFGVQRWGIYLLDTNNNLASVEAKGVSDTFIEQYQRFGKAVDPVLKYVLENHAPAHEELVLPEGTWKQSELYQRCCSTHDHEHIMTGPLVGQGQLIGTINFARIGHIPAFNHLELASLGAVCTHFSARLAELRKPHSVSGQISNRLTSREIQIANLVAKGLTNAEIGAELWITHNSVKQALKRIFRKLEVSARTEMVAKLRDII | not soluble |
| MGSDKIHHHHHHMPIDTVGEQISLGKTSNEQANHIFLFLEVFKQEGGIQSYVKDIFRAYSGLSQGYQAEVLLLRDSPECSNPFTSNNLKFHYFQNPSPQIGRIKMAGVLLKFLLQRRPQMVFCGHIKLAVLVQTLCQPLGIPYTILTYGKEFWEPLKNQERRALAAAKEIWTISRYSRDRACAVNGIDPHKVKMLPCAIDGNKFTPGAKQPELIDKYGLTDAKVLMTVARLWSGDIYKGVDVTIRALPKIIQSFPEVKYLVIGRGDDQPRLAQLAQDLGVSDRVIFAGFVPTEQLMAHYRLADAYIMPSQEGFGIVYLEAMACGVPVLSGDDDGSADPLQDGKLGWRVPHRNPEAVAAACLEILQGDDQRCDGEWLREQAIALFGMDALQKQLLSLVHTQN | not soluble |
| MGSDKIHHHHHHMPINIRRATINDIICMQNANLHNLPENYMMKYYMYHILSWPEASFVATTTTLDCEDSDEQDENDKLELTLDGTNDGRTIKLDPTYLAPGEKLVGYVLVKMNDDPDQQNEPPNGHITSLSVMRTYRRMGIAENLMRQALFALREVHQAEYVSLHVRQSNRAALHLYRDTLAFEVLSIEKSYYQDGEDAYAMKKVLKLEELQISNFTHRRLKENEEKLEDDLESDLLEDIIKQGVNDIIV | not soluble |
| MGSDKIHHHHHHMPINSFENYPMNWKPKRPSKGQILYKALAEQLEQDINNGFLLPGTKLPPQRELADFLDVNVSTISRAFKICEKKGLISGVTGSGTFVSYDTRSNLFLMSSNNKITFIEMGTMNPDFTLEEMNTLFKHIIKEIDFKTIFQYGQRDGAKWQKEAIAKLIYKAGLETTSDSLLPASGGQNAIVAILAGLFQHGDRIGVDPLTYPGIKTAAKMLGIQLIPIKQEDNEISEEGLLYACKNENIKGLYIIPDYQNPTTHIMSQNGRKMIANIASKYNLIVIEDAIHSLLNETHLNPVASYLPNQTIYITSLSKIIAPSLRLAYISTPKQYREALSSALYNINLSQSYFLTEIAYRMITSGEADKLINARRKSARRRNKIINQYLSGYNLLGNEECIFRWLILPDGIMAEKFEIQALKEGVQVYASERFAVGKEKPISAIRIAVCATESTEELKAGLSVLKRLLEEKK | not soluble |
| MGSDKIHHHHHHMPKNWTLKVDQYINANSNCIIATAHVDSFPTDLPLEPNIREPNLKSSTYKQIFDSLTTEPEKFFQRNNGIVLCVNKVKPKNRTELELEILQANEGGNDGVINGGHSVSAFEQARKFKYDLTLARVKVTIHIGLSEDEAKDIALASNTSAPVDARSKVNARGDYQFIKQFLAQLEREEDTKFRIAYYQNQSGAPKSPQCNVNHLIKLMNCLDRNKYNPNTNKSKGKHPPVSNNPSLTDAERERLSRLLPLLPKALWIEQRFFKTIEAYITNPKKKGVDLASIDARKNTLLPDSRYSFGFSAPADIAMPIVAAYRVFLDENYNWLIPFDDFAEDFLQHLWNNYYRKYLVSEKFSGNTVGSKICRNPVIWDSLYVSAQSYLNQQLLKMVSSSKNKREELKLAN | not soluble |
| MGSDKIHHHHHHMPLDLDTALSSHQPLSLNERKLLDILRRRGAITRATVSAEMDLAQQSVHRLIEELISRGLLRSGERVKNGRGQPSPRIELVNEAVYAIGVSINTDSAVVCVADLGCNVLEQVTLRTPPLSRNSTLDSLAKTIERMLQRNGIETDRVIGMGFAIAGFFLENRQINAPEPLRDWSLIDLQPVLEERFGMPVWLENNATTAAIGESLVGVGAWASNFIYLSFNFGFGAGVVINGKPYFGSHGNAGEITLYNDEESINRPALRYLLEELHQKGVQVDSIEDLRLRFDPNWPGVDTWLKRIQPTLDRLVNALAGLFDPQAVVFGGQLPAELGKRLIAATTFWGTHRYNSPPPRPRLLLSETNGDAAAIGAALVPLKERFFV | not soluble |
| MGSDKIHHHHHHMPNIDTFVPEKIQIGISSCLLGNQVRFDGGHKNSYYCRQEIEPFFEYTTVCPEMAIGMGTPRKSIRQIRDGDVVHIRSADGTLDVTDKLNEYSQAKVEELDYLGGYILCAKSPTCGMERVTEYKIGTNNGSKTGVGVFAKKLMERYPLLPVEEEGRLHDLPLRENFFTRVFAYNDWKQMTQSGLTKHKLMQFHSRYKYLLMAHSPKWYRDLGPILADIQDVEQTAQQYFEGFMTALKIIATRKNHTSTLQHIQGYFKKQLTAEQKEELSESILKYRQGLLPLLVPITLINHYVREFHTPYIQDQVYLNPHPEALKLRYAY | not soluble |
| MGSDKIHHHHHHMPNIIIIERDINYLKIFIKCMKESGFEVVCMNNTKLVSQVAQKQLPDLIICSLEIAKQNNCNFWNNLCQNFVTATIPLIFLINEASEIYQCPEFAADGYITKFCTTEELNKAIKAQLAKQAARKHGYAIQSQQVLNSPSIGNDQPNVQSILPSIPRLNLVFEFIAANYDKPISLCDVAEALGYSATYLTTVVTQTTGKSLQKWIIECRITAAQILLLQTDQSVNQIALKVGYENLAHFYRQFRDYHGTSPQVWREVEKSHNSHQLNKDKASLNSNNFGDFQ | not soluble |
| MGSDKIHHHHHHMPNKDIDDLVRFLKDKQISTITKKYHSYLTFHGLKAANVFILKEGIIKTSVILQDGREFNISYINQPDVISLLHDEALQYDEQPFNVRIESETATFYQVNRVEFWQYVNAKSELQNYVKQYYRHRLSETFARIQRLTMNGKMGALANFLHDIAEKFGRDLPDEAGVLIDFNVTNEDIAGFCGIANQTSVSRMMRKLKLEDIIDFGMSNDGKRRIIITNMKKLDDYIAY | not soluble |
| MGSDKIHHHHHHMPPLDLTHIRQHHTVAELIALGKARRQVTPFEKLGTFTPVKRNASDYLKHVREMLVPELLPLRRERMSASAFAFFRGSVELMDYDLDYQSSTEIPAVVCGDAHIGNFGFYASPERRLVFDLNDFDEAGVHPWEWDLRRLLVSVLLAARDSNFKPKKVEKLIQAASASYREALKRMFDQTTLDRFYRDNEVQAVLNFGGAPEDTADLIASLVKKAQKRNSEQVVRKFTVTNSRGERQFKENAPRSVHIDRQTYQGLKAGISEYLLNVRTDVALLLSQYEVTDIIRHSVGVGSFGSLCYLVLLTSTDGSHMVLQIKEALPTRKVGSQSRPALTAAMELTEGQRIVSSQRILQATSDAFLGYFQMENKSFYVRQFRDMKESIDIPTLDWGQFQAYANTCAMILAKAHAQSPTAAMIRGYVGNSAKFDEAMAKWATAYVEQVDNDYQDFLDV | not soluble |
| MGSDKIHHHHHHMPPLPVLNRPQIHTSVTEISHAIDRTIKEELFPVAYTTEEEQYFKTNPKPAYIDELIKDAKEFIDLQYSLKRNKIVLITSGGTTVPLENNTVRFIDNFSAGTRGASSAEQFLANGYSVIFLHREFSLTPYNRSFSHSINTLFLDYIDSEGKIKPEFAENVLKNKKLYDKYMEKEEKLLLLPFTTVNQYLWSLKSIAKLLNNSGCLFYLAAAVSDFFVPYSRLPQHKIQSGDNGKMGANNDTEGTTRTTPDGKLIVNLDPVPKFLRRLVESWATQAMIVSFKLETDESMLLYKCTQALDRYNHQLVIGNLLQTRNKQVIFVSPENRKGDWVRLDEKHHIIEEMIIPEVIARHDKWVAHSKTKLATK | not soluble |
| MGSDKIHHHHHHMPPRKKAAIASTGIAGLDEILRGGLPLPNLFMLQGAPGSGKTTAAIQFLRAGVEAGESCLYVTLSQSAAELRSIAVSHGWTLDGIHVEELSTTGSIDEADEQSIFMTADLRLDETRKAIEAAIDEHKPQRLVYDSLLEIRLITGDSPRFRRELIGFKSFLSKRKVVALLLDTQSPGLDRSGEEVEGLAHGVIRFDKSLEEYGGVRRRIEVSKMRGVPIADGYHDMAIREGAGVVVFPRIMPSTATEATKPQLIKSGVSELDDMFGGGQEAGTTTLVIGQAGTGKSTMSSLYATAALERGESVALFLFEERLETFFRRSEGLGMQLRQFHKDGKLILRDFNPNEVSPGEFGQIVQDAVVQNKVRVVVIDSLTGYLNSLPHREKAVRDIQSLLKYLARSGVLTMLIVAQHGLLGQNVGIDVDVSFLGDTVLLLRIMEHEGRLRRSITVVKKRHGPHDLDVRELLIESGSVSVVSYNPLPDPK | not soluble |
| MGSDKIHHHHHHMPQIGYQWLSSKCGVVPVHPFAVQSEIGRARSTSTDGDIRREIYPEPYRPTASLTDNLTFAFRHEGIHLEFLARLYALPSVRKELEAWIAREPTGAYARRACFFYEWLMPAPLDAPGVSKGNYVDALNPEEFVVGASINNTRWRVRDNLPGNRDFCPVIRRVEAVQRAETYDLAAPLAELEADYGIDLILRSAVWLTVKESRASFLIEHEQDNEDRIRRFAAVMESECGQHANPFDAGTLNVLQRGILGQSALRYGIRRSPVYVGHVARYQPVVDYIAPPWQHIEVMLAGLTRFLERTAGRAPLVRAAAASFGFVYAHPMADGNGRISRFLINDILRRDGAVPAPIILPVSATITHSTRDRAAYDKVLERFSRPLMKHYADQYTFGKTEIAEDGVEYNLHFHAYEDALPAWRYPDLTAHVGYLADVIDATLAHEMRTEARFLQANDKARRAIKDFLEAPDNDLDGIIRSVRQNGNSISNNLRKRYPLLDERPELGAQIVEAVAEAFADDKSH | not soluble |
| MGSDKIHHHHHHMPQRIDLRVRPEEATDEQILRKHVARQTKTDPTDIHTIIIRRRSIDARQRQVYVNLGLEVYSGSESPVEDDFSDLIYPSVEGKTAVIVVGAGPAGLFAALRLIELGLRPIILERGKSVHERRADIARIPKEGHVDPESNYGFGEGGAGAFSDGKLYTRSKKRGDITKILRILCKHGAQPSILIDAHPHIGTDRLPKVIENIRHQILAAGGEVHFSCRMESLIIHNGQVVGARDNKGREYCGPVILATGHSARDIYRYLHRNGIRMEAKGTAVGVRLEHPQALIDQLRYHNPKGRGLYLPPAEYTYTAQVEGRGVYSFCMCPGGFVVPASTAPDQTVVNGMSPANRGSRWANSGLVVEIHPEDVLSTPTNDPLALMNWIERLEGESWTQARCSLRAPAQRMTDFLSGRSSVDLPKSSYNMGLTPSRLDEWLPSFITKRIQKAFQLFDRQTKGFLTAEAQLIALESRTSSPVRILRESTSCEHPLLRGLFPCGEGAGYAGGIVSAAMDGERCAEGVASYLG | not soluble |
| MGSDKIHHHHHHMPRHVSNLELHNQIQEAALQSHLVPLGSIQLTPHFIPVEGLRRSIQRALKNCQPQDFLYCNKQGHEQLRKALSDHWREDGIYIAPEDIFITNGCMPALSLVIQKLTEVGDSILIPTPTYNGHLQLLASLKRQIVEIPADHRGIDLERLESLMQQGLAKVCLMTANYQNPLGYCFSNAEKQKIAELAAEYQCFIIEDDIFGECGYSSERPLPIRYWDREGYVVWCGSVSKSLSSAYRVGWFCLTTKLEHLKLELLVSNIGVNTPLQLGLADFIYSRGYREHLEQLRPNLMRQVEEYRSCILRAFEGIPIALSQPEGGYALWIQLPKSVDSLALYYTAQAQGITVVPGYVFGEDERYRHFIRLNAGHELTADVRQAIMSLADWSRQQMQTVS | not soluble |
